In patent US20060084798, “cDNAs and proteins involved in hypoxia, circadian and orphan signal transduction pathways, and methods of use” (published 2006):
Where two headings read alike, the source gives them in different places.

Experiments:
[1] = target: T1, MOP1 (HIF1alpha)/ARNT heterodimer (Homo sapiens, UniProt Q16665;P27540 Q16665:1-826,P27540:1-789); assay: EMSA
MOP1 (HIF1alpha)/AHR = MOP1 (HIF1alpha)/AHR (UniProt Q16665;P35869 Q16665:1-826,P35869:1-848); assay: EMSA; no complex with any bHLH-PAS family response element
Sequence of MOP1 (HIF1alpha)/AHR (Q16665 whole entry, chain 1 of 2): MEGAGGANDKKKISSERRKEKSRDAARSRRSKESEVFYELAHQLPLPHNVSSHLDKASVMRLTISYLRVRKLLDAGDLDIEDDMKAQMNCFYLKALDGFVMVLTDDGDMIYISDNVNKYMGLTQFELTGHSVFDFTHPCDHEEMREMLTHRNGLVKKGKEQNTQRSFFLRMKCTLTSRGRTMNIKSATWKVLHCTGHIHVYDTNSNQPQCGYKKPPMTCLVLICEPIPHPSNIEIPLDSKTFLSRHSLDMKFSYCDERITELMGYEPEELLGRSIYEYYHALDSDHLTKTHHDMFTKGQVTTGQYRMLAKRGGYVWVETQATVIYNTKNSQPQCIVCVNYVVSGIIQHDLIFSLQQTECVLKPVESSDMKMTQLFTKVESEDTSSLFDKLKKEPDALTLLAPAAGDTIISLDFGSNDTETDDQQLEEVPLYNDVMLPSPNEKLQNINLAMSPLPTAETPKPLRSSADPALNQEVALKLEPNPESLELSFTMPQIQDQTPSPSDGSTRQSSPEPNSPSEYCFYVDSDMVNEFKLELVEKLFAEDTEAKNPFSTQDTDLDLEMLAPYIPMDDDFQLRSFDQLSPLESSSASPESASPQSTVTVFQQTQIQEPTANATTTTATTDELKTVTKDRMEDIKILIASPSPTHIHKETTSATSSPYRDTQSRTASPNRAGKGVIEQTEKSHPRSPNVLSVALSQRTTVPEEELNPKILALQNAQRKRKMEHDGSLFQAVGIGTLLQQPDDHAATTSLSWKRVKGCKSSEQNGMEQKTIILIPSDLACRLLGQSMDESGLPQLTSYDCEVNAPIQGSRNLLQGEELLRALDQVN
Sequence of MOP1 (HIF1alpha)/AHR (P35869 whole entry, chain 2 of 2): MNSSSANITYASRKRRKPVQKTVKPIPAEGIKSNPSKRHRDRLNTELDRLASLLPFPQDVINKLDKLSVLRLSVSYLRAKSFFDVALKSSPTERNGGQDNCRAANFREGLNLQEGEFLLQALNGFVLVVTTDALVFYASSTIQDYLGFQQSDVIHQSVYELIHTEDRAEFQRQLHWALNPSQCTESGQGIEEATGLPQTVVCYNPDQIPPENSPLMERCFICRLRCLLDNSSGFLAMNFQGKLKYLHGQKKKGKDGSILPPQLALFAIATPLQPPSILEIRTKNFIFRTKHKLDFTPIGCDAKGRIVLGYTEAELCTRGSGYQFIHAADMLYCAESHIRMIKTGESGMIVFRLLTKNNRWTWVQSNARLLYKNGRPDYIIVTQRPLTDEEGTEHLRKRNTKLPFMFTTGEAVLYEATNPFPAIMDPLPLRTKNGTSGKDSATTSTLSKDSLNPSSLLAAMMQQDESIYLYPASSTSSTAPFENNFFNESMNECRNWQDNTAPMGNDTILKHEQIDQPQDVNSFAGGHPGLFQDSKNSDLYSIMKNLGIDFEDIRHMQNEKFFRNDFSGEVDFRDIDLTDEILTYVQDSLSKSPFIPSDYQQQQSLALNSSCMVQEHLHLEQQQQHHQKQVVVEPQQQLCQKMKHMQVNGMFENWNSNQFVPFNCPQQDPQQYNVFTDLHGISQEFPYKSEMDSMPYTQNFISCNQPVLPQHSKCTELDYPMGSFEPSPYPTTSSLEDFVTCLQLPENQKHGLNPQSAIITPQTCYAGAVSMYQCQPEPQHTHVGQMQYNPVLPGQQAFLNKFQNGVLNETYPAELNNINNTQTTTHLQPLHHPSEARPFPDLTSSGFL

MOP1 (HIF1alpha) [2] = target: T2, MOP1 (HIF1alpha) (Homo sapiens, UniProt Q16665 SEQ:1-826); assay: EMSA; HIF1alpha alone
T2 sequence (Q16665 whole entry): as the sequence (Q16665 whole entry, chain 1 of 2) above

ARNT = ARNT (Homo sapiens, UniProt P27540 P27540:1-789); assay: EMSA; ARNT alone; conditions: label: 32P
Sequence of ARNT (P27540 whole entry, one chain of several): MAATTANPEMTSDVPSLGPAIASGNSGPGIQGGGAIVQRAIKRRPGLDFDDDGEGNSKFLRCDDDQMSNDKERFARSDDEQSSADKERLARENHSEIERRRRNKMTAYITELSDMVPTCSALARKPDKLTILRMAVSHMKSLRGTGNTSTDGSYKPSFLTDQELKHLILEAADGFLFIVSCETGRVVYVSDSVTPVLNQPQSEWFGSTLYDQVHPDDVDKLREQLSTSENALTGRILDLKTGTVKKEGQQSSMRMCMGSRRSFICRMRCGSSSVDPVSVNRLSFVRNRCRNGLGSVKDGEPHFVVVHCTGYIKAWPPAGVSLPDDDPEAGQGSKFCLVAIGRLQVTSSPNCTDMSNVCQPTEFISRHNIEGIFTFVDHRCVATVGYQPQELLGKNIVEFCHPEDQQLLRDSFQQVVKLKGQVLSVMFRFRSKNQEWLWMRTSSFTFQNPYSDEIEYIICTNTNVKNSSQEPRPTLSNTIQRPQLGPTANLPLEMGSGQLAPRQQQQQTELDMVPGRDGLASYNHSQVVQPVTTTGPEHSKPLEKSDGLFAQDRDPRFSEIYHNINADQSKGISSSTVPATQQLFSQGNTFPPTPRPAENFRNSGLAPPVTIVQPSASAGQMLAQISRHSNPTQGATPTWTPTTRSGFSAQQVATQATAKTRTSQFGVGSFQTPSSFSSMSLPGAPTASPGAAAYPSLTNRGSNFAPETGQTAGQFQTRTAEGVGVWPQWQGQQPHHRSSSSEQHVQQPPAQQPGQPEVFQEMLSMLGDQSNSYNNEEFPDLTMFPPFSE

MOP1 (HIF1alpha) [3] = target: T2, MOP1 (HIF1alpha); assay: EMSA; MOP1 alone; conditions: label: 32P
[4] = target: MOP7 (HIF3alpha)/human ARNT heterodimer (Mus musculus, UniProt Q0VBL6;P27540 Q0VBL6:1-662,P27540:1-789); assay: EMSA; abolished by anti-ARNT; conditions: label: 32P
Experimental: Gel-shift assay. To generate a double strand oligonucleotide probe containing the core HRE element, 50 ng of oligonucleotide OL414 was end-labeled with [γ-³²P]ATP and was annealed with 10 fold excess of cold complementary oligonucleotide OL415. […] For expression of the bHLH-PAS proteins, mMOP7 (PL1025) and hARNT (PL87) were synthesized in a reticulocyte lysate in the presence of [³⁵S]methionine. The amount of each protein synthesized was calculated by measuring radioactivity and estimated to be approximately 1 fmol in each 10 μl gel-shift reaction. Each gel-shift assay was performed with 100,000 cpm of oligonucleotide probe per 10 μl reaction. To confirm complex identity, 1 μl of anti-ARNT sera was used to supershift the DNA bound protein complex.
As a biochemical proof that MOP7 was a bona fide α-class HIF, we performed gel-shift and transient transfection analyses. Because HIF1α and HIF2α are known to pair with the β-class HIF subunit ARNT, we predicted that MOP7 would also pair with ARNT. Based upon sequence identity in their basic regions, we also predicted that a MOP7-ARNT would bind the HRE core sequence, TACGTG. […] First, the MOP7-ARNT-HRE complex was abolished by anti-ARNT IgGs but not by preimmune antibodies. Second, the complex was blocked by an excess of HRE containing oligonucleotide but not by oligonucleotides with a single mutation within the core HRE sequence. […]

[5] = target: T1, MOP1 (HIF1alpha)/ARNT heterodimer; assay: EMSA; oligo assignment by core; supershifted by antisera; conditions: label: 32P
[6] = target: MOP2 (HIF2alpha)/ARNT heterodimer (Homo sapiens, UniProt Q99814;P27540 Q99814:1-870,P27540:1-789); assay: EMSA; approximately equal to MOP1-ARNT; supershifted by antisera; conditions: label: 32P
[7] = target: T1, MOP1 (HIF1alpha)/ARNT heterodimer; assay: EMSA; higher affinity than MOP1 or ARNT alone
[8] = target: ARNT/HIF2alpha (transfected) (Homo sapiens, UniProt P27540;Q99814 P27540:1-789,Q99814:1-870); assay: cell_activity; COS-1 luciferase
Experimental: (§1) Cell Culture and Transient Transfection. Transient transfections of COS-1 cells were performed by the Lipofectamine protocol (GIBCO) as described in Example 1. To mimic hypoxia, 100 μM of cobalt chloride was included in the cell growth media and incubated at 37° C. until harvest. To monitor the transcriptional activity of the MOP3-MOP4 or MOP3-CLOCK heterodimers, a synthetic reporter was constructed by annealing phosphorylated oligonucleotides OL1116 and OL1117 and cloning them into the BglII site in the reporter plasmid pGL3p (Promega). To measure the transcriptional activity of the MOP3-HIF1α or MOP3-HIF2α heterodimers, a synthetic reporter was constructed by annealing phosphorylated oligonucleotides OL1155 and OL1156 and then cloning them as above. Luciferase levels were reported in relation to β-galactosidase activity as described in Example 1.
(§2) To determine if MOP3 formed a transcriptionally active complex with either HIF1α or HIF2α in vivo, we constructed a synthetic reporter using six copies of the M13 element described above. […] Like ARNT, upon exposure of these transfected cells to cobalt chloride to simulate cellular hypoxia, MOP3 interacted and drove transcription in complexes with both HIF1α and with HIF2α.

[9] = target: ARNT/HIF1alpha (transfected) (Homo sapiens, UniProt P27540;Q16665 P27540:1-789,Q16665:1-826); assay: cell_activity; COS-1 luciferase
Experimental: as §1, §2

T1 sequence (Q16665 whole entry, chain 1 of 2): as the sequence (Q16665 whole entry, chain 1 of 2) above
T1 sequence (P27540 whole entry, chain 2 of 2): as the sequence (P27540 whole entry, one chain of several) above

B1: OL443/OL444 GTGCGTG (SAE) (dsDNA)
DNA 1: TCGAGCTGGGCAGGGTGCGTGGCAAGGC
DNA 2: TCGAGCCTTGCCACGCACCCTGCCCAGC
binding result [1]: no binding | binding result (MOP1 (HIF1alpha)/AHR): no binding

B2: M13 element (dsDNA)
DNA 1: GCCCTACGTGACCC
DNA 2: GGGTCACGTAGGGC
binding result (MOP1 (HIF1alpha) [2]): no binding

B3: OL414/OL415 TACGTG (HRE) (dsDNA)
DNA 1: TCGAGCTGGGCAGGGTACGTGGCAAGGC
DNA 2: TCGAGCCTTGCCACGTACCCTGCCCAGC
binding result (ARNT): no binding | binding result (MOP1 (HIF1alpha) [3]): no binding | binding result [4]: binds | binding result [5]: binds | binding result (MOP1 (HIF1alpha)/AHR; label: 32P): no binding | binding result [6]: binds

B4: OL445/OL446 CACGTG E-box (dsDNA)
DNA 1: TCGAGCTGGGCAGGTCACGTGGCAAGGC
DNA 2: TCGAGCCTTGCCACGTGACCTGCCCAGC
binding result [7]: binds | binding result (MOP1 (HIF1alpha)/AHR): no binding

B5: OL447/OL448 TTGCGTG (DRE) (dsDNA)
DNA 1: TCGAGCTGGGCAGGTTGCGTGGCAAGGC
DNA 2: TCGAGCCTTGCCACGCAACCTGCCCAGC
binding result [1]: no binding | binding result (MOP1 (HIF1alpha)/AHR): no binding

B6: M13 reporter insert OL1155 (reporter carries six M13 copies) (dsDNA)
DNA 1: GATCGGATACGTGACCATTGGTTACGTGTCCATTGGATACGTGACC
DNA 2: GGTCACGTATCCAATGGACACGTAACCAATGGTCACGTATCCGATC
activity [8]: 8.1 fold | activity [9]: 14.1 fold
